Sequences and labels used below:
B1: Zinc finger protein 512B (Homo sapiens), Q96KM6 (parent)
chain: MTDPFCVGGRRLPGSSKSGPGKDGSRKEVRLPMLHDPPKMGMPVVRGGQTVPGQAPLCFDPGSPASDKTEGKKKGRPKAENQALRDIPLSLMNDWKDEFKAHSRVKCPNSGCWLEFPSIYGLKYHYQRCQGGAISDRLAFPCPFCEAAFTSKTQLEKHRIWNHMDRPLPASKPGPISRPVTISRPVGVSKPIGVSKPVTIGKPVGVSKPIGISKPVSVGRPMPVTKAIPVTRPVPVTKPVTVSRPMPVTKAMPVTKPITVTKSVPVTKPVPVTKPITVTKLVTVTKPVPVTKPVTVSRPIVVSKPVTVSRPIAISRHTPPCKMVLLTRSENKAPRATGRNSGKKRAADSLDTCPIPPKQARPENGEYGPSSMGQSSAFQLSADTSSGSLSPGSRPSGGMEALKAAGPASPPEEDPERTKHRRKQKTPKKFTGEQPSISGTFGLKGLVKAEDKARVHRSKKQEGPGPEDARKKVPAAPITVSKEAPAPVAHPAPGGPEEQWQRAIHERGEAVCPTCNVVTRKTLVGLKKHMEVCQKLQDALKCQHCRKQFKSKAGLNYHTMAEHSAKPSDAEASEGGEQEERERLRKVLKQMGRLRCPQEGCGAAFSSLMGYQYHQRRCGKPPCEVDSPSFPCTHCGKTYRSKAGHDYHVRSEHTAPPPEEPTDKSPEAEDPLGVERTPSGRVRRTSAQVAVFHLQEIAEDELARDWTKRRMKDDLVPETARLNYTRPGLPTLNPQLLEAWKNEVKEKGHVNCPNDCCEAIYSSVSGLKAHLASCSKGAHLAGKYRCLLCPKEFSSESGVKYHILKTHAENWFRTSADPPPKHRSQDSLVPKKEKKKNLAGGKKRGRKPKERTPEEPVAKLPPRRDDWPPGCRDKGARGSTGRKVGVSKAPEK
B2: Pachytene checkpoint protein 2 homolog (Homo sapiens), Q15645 (parent)
chain: MDEAVGDLKQALPCVAESPTVHVEVHQRGSSTAKKEDINLSVRKLLNRHNIVFGDYTWTEFDEPFLTRNVQSVSIIDTELKVKDSQPIDLSACTVALHIFQLNEDGPSSENLEEETENIIAANHWVLPAAEFHGLWDSLVYDVEVKSHLLDYVMTTLLFSDKNVNSNLITWNRVVLLHGPPGTGKTSLCKALAQKLTIRLSSRYRYGQLIEINSHSLFSKWFSESGKLVTKMFQKIQDLIDDKDALVFVLIDEVESLTAARNACRAGTEPSDAIRVVNAVLTQIDQIKRHSNVVILTTSNITEKIDVAFVDRADIKQYIGPPSAAAIFKIYLSCLEELMKCQIIYPRQQLLTLRELEMIGFIENNVSKLSLLLNDISRKSEGLSGRVLRKLPFLAHALYVQAPTVTIEGFLQALSLAVDKQFEERKKLAAYI
partner: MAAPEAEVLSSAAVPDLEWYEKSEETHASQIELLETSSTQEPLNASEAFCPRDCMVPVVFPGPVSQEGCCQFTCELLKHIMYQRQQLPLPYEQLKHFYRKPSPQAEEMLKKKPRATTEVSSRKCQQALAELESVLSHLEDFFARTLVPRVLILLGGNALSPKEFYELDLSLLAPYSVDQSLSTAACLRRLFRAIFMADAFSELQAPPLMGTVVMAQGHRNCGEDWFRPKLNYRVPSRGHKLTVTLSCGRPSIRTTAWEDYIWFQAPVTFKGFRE
B3: Coiled-coil domain-containing protein 33 (Homo sapiens), Q8N5R6-5 (parent)
chain: MGEPGPPSPPAPKAAPGLIDSFSEMNNYRRAMQKMAEDILSLRRQASILEGENRILRSRLAQQEEEEGQGKASEAQNTVSMKQKLLLSELDMKKLRDRVQHLQNELIRKNDREKELLLLYQAQQPQAALLKQYQGKLQKMKALEETVRHQEKVIEKMERVLEDRLQDRSKPPPLNRQQGKPYTGFPMLSASGLPLGSMGENLPVELYSVLLAENAKLRTELDKNRHQQAPIILQQQALPVDPGELGAGGDLTERLQETHGPGHSECTETLPAQDLLSGTSDKFNLLAKLEHAQSRILSLESQLEDSARRWGREKQDLATRLQEQEKGFRHPSNSIIIEQPVSDPPGVAPRGSGGGAGSHRTPKVTGP
B4: Keratin, type I cytoskeletal 18 (Homo sapiens), P05783 (parent)
chain: MSFTTRSTFSTNYRSLGSVQAPSYGARPVSSAASVYAGAGGSGSRISVSRSTSFRGGMGSGGLATGIAGGLAGMGGIQNEKETMQSLNDRLASYLDRVRSLETENRRLESKIREHLEKKGPQVRDWSHYFKIIEDLRAQIFANTVDNARIVLQIDNARLAADDFRVKYETELAMRQSVENDIHGLRKVIDDTNITRLQLETEIEALKEELLFMKKNHEEEVKGLQAQIASSGLTVEVDAPKSQDLAKIMADIRAQYDELARKNREELDKYWSQQIEESTTVVTTQSAEVGAAETTLTELRRTVQSLEIDLDSMRNLKASLENSLREVEARYALQMEQLNGILLHLESELAQTRAEGQRQAQEYEALLNIKVKLEAEIATYRRLLEDGEDFNLGDALDSSNSMQTIQKTTTRRIVDGKVVSETNDTKVLRH
partner: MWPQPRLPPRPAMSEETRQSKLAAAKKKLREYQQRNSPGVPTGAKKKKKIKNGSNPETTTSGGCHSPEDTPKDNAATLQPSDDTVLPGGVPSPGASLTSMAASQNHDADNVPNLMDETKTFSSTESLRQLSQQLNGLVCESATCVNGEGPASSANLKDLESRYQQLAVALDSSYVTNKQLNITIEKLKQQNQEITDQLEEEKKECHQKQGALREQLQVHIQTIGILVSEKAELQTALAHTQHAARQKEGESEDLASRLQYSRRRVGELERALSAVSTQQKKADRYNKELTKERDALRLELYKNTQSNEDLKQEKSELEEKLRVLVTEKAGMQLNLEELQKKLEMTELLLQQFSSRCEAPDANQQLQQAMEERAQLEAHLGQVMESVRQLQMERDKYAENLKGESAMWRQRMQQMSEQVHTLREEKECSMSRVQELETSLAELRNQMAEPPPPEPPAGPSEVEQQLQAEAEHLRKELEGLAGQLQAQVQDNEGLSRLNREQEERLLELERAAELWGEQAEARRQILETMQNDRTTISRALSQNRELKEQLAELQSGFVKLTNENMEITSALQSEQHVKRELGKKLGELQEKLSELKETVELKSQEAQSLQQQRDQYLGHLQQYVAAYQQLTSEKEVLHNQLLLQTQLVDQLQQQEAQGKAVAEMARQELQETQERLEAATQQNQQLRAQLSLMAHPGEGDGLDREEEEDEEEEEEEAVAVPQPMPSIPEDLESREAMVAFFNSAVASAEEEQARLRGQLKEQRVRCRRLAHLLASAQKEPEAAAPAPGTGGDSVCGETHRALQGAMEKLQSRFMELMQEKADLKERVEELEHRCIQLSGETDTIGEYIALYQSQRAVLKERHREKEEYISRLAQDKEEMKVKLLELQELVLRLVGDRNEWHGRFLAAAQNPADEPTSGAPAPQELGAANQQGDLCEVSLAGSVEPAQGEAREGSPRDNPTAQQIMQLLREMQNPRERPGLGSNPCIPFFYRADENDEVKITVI
B5: Septin-12 (Homo sapiens), Q8IYM1 (parent)
chain: MDPLRRSPSPCLSSQPSSPSTPPCEMLGPVGIEAVLDQLKIKAMKMGFEFNIMVVGQSGLGKSTMVNTLFKSKVWKSNPPGLGVPTPQTLQLHSLTHVIEEKGVKLKLTVTDTPGFGDQINNDNCWDPILGYINEQYEQYLQEEILITRQRHIPDTRVHCCVYFVPPTGHCLRPLDIEFLQRLCRTVNVVPVIARADSLTMEEREAFRRRIQQNLRTHCIDVYPQMCFDEDINDKILNSKLRDRIPFAVVGADQEHLVNGRCVLGRKTKWGIIEVENMAHCEFPLLRDLLIRSHLQDLKDITHNIHYENYRVIRLNESHLLPRGPGWVNLAPASPGQLTTPRTFKVCRGAHDDSDDEF
partner: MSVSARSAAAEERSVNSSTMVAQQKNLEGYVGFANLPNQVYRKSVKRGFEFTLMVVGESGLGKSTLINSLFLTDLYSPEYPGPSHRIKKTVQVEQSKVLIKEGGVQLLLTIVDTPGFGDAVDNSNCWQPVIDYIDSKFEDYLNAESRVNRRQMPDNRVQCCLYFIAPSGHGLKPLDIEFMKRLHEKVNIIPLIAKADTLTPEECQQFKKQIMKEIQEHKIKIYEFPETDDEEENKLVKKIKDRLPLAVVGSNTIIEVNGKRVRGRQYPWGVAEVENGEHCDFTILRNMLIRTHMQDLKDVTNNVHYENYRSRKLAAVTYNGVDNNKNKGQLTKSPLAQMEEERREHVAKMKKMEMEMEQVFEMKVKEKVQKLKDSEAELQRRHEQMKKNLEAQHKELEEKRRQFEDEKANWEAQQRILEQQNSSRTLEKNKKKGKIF
B6: Golgin-45 (Homo sapiens), Q9H2G9 (parent)
chain: MTTKNLETKVTVTSSPIRGAGDGMETEEPPKSVEVTSGVQSRKHHSLQSPWKKAVPSESPGVLQLGKMLTEKAMEVKAVRILVPKAAITHDIPNKNTKVKSLGHHKGEFLGQSEGVIEPNKELSEVKNVLEKLKNSERRLLQDKEGLSNQLRVQTEVNRELKKLLVASVGDDLQYHFERLAREKNQLILENEALGRNTAQLSEQLERMSIQCDVWRSKFLASRVMADELTNSRAALQRQNRDAHGAIQDLLSEREQFRQEMIATQKLLEELLVSLQWGREQTYSPSVQPHSTAELALTNHKLAKAVNSHLLGNVGINNQKKIPSTVEFCSTPAEKMAETVLRILDPVTCKESSPDNPFFESSPTTLLATKKNIGRFHPYTRYENITFNCCNHCRGELIAL

The variants in the first assay derive from B1. Conditions: with fhl3_human FHL3, Q13643.
fhl3_human FHL3, Q13643, sequence (Q13643 whole entry): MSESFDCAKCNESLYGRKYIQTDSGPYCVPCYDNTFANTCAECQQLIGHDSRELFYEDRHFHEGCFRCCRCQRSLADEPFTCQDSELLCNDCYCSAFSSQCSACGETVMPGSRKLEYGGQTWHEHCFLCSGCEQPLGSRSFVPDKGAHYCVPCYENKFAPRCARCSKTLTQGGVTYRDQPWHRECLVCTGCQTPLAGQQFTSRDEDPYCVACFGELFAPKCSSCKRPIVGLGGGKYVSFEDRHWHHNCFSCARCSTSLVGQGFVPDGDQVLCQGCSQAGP
On to A453T, for which the “effect of a mutation on the interaction” value is recorded as “with no effect”.

In another assay the parent is B1. To be noted: with traf1_human TRAF1, Q13077.
traf1_human TRAF1, Q13077, sequence (Q13077 whole entry): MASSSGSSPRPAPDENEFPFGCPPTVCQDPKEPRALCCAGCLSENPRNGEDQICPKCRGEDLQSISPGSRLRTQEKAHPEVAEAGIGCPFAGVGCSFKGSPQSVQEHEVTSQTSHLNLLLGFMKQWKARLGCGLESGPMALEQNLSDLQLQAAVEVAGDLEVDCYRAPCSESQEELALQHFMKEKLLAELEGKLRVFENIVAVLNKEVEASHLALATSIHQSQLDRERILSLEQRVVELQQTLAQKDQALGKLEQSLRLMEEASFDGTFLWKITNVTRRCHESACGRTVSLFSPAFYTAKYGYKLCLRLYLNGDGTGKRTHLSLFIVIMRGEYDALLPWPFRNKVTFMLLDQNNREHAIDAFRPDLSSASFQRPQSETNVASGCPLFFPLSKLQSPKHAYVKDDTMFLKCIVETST
Take A453T: the “effect of a mutation on the interaction” value is on record as “with no effect”.

The variants in the next assay derive from B2. Conditions: with md2bp_human MAD2L1BP.
On to G409E, for which the “effect of a mutation on the interaction” value is “with no effect”.

A further assay covers variants of B3. Conditions: with smad3_human SMAD3, P84022.
smad3_human SMAD3, P84022, sequence (P84022 whole entry, looked up): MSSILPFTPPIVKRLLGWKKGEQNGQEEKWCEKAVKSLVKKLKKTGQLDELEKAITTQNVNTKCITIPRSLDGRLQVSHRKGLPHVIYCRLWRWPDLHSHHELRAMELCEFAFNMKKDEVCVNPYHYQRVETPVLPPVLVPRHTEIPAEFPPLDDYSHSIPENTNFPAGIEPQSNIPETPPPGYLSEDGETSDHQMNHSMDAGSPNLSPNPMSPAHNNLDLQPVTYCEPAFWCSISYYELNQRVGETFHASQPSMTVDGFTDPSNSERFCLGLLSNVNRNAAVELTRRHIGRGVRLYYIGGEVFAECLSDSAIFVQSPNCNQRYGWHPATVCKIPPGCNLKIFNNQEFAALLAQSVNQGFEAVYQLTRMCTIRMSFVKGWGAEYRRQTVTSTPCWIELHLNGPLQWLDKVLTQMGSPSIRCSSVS
Regarding P203L, the “effect of a mutation on the interaction” value is reported as “disrupting interaction strength”.
Consider M25V, for which the “effect of a mutation on the interaction” value is given as “with no effect”.
G196R: the “effect of a mutation on the interaction” value is recorded as “with no effect”.
On to R30L, for which the “effect of a mutation on the interaction” value is “with no effect”.

In another assay the parent is B3. To be noted: with aakb2_human PRKAB2, O43741.
Target sequence in this assay (O43741 whole entry): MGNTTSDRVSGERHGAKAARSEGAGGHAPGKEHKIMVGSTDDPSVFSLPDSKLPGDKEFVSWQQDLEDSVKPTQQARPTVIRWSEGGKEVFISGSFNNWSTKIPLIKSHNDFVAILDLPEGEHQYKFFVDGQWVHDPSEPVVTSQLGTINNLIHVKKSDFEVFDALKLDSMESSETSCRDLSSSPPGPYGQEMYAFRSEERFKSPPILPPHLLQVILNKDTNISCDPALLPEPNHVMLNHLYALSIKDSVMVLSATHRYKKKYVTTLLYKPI
Consider P203L, for which the “effect of a mutation on the interaction” value is on record as “with no effect”.
On the same count and under the same terms, under M25V stands “with no effect”; under G196R, “with no effect”; under R30L, “with no effect”.

Another assay covers variants of B3. Conditions: with blk_human BLK.
Turning to P203L, the “effect of a mutation on the interaction” value was “with no effect”.
Same read-out and setting: then M25V, with “with no effect”; and G196R, with “with no effect”; and R30L, with “with no effect”.

Variants of B3 are the subject of the next assay. To be noted: with ptk6_human PTK6, Q13882.
On to S73N, for which the “effect of a mutation on the interaction” value is recorded as “with no effect”.

In the next assay the parent is B3. Conditions: with bccip_human BCCIP.
Turning to S73N, the “effect of a mutation on the interaction” value was “with no effect”.

Variants of B4 are the subject of another assay. Conditions: with goga2_human GOLGA2, Q08379.
Consider R158H, for which the “effect of a mutation on the interaction” value is “with no effect”.
Turning to S230T, the “effect of a mutation on the interaction” value was “with no effect”.

The variants in another assay derive from B5. Conditions: with sept7_human SEPTIN7, Q16181.
For the variant D197N, the “effect of a mutation on the interaction” value is “disrupting interaction strength”.
As for G169E, the “effect of a mutation on the interaction” value is “disrupting interaction strength”.

Variants of B6 are the subject of a further assay. To be noted: with aakb2_human PRKAB2, O43741.
Target sequence in this assay (O43741 whole entry): as above
As to Q40R, the “effect of a mutation on the interaction” value was “with no effect”.

Variants of B6 are the subject of a further assay. Conditions: with rab2a_human RAB2A.
Q40R: the “effect of a mutation on the interaction” value was “with no effect”.

Variants of B6 are the subject of the next assay. Conditions: with zbt24_human ZBTB24, O43167.
zbt24_human ZBTB24, O43167, sequence (O43167 whole entry): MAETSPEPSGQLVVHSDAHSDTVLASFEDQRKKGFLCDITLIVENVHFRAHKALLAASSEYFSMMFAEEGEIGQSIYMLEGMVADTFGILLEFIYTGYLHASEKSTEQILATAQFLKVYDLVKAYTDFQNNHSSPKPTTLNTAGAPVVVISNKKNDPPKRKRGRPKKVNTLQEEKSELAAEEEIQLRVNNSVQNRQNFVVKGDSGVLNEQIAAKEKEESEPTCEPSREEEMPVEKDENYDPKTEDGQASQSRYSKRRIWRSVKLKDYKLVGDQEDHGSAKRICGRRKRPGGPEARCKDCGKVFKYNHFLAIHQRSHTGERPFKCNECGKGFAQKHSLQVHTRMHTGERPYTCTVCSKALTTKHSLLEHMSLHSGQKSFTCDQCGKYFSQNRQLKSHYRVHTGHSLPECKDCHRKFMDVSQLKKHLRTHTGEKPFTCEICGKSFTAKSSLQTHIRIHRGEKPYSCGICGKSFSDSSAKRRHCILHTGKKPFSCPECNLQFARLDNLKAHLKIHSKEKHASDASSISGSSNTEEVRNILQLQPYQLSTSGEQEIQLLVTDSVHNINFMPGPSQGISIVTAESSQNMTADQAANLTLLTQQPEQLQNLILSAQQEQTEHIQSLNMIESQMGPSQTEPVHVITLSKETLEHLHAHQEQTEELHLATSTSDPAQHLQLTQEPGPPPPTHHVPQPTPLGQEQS
On to Q40R, for which the “effect of a mutation on the interaction” value is given as “with no effect”.
